B1: GST-tagged mouse ZO-1(PDZ1) (residues 18–110) [mouse] / His6-tagged thioredoxin (Trx) fusion protein of mouse CLD-3 C-terminus (Trx-CLD3, residues 210–219) [mouse] (parent)
chain 1: IWEQHTVTLHRAPGFGFGIAISGGRDNPHFQSGETSIVISDVLKGGPAEGQLQENDRVAMVNGVSMDNVEHAFAVQQLRKSGKNAKITIRRKK
chain 2: GTAYDRKDYV

Variants of: B1
Test: SPR
Details: with His6-tagged thioredoxin (Trx) fusion protein of mouse CLD-3 C-terminus (Trx-CLD3, residues 210–219) [mouse], read off a plot
[1] = absence of phytic acid (gray bar), parent: 1.2e+03
[2] = presence of 10 mM phytic acid (InsP6) (black bar), parent: 530

response [1]	response [2]	Variant
1300 RU	480 RU	chain 1 K83A
340 RU	78 RU	chain 1 R11A
1400 RU	460 RU	chain 1 K80A
